# Test results reported in patent US20220288067A1 (University of Pennsylvania, published 2022).
# T1: mutant MED1-peptide SPAYAPQNLD
# T1 chain: SPAYAPQNLD
# T2: wild type MED1-peptide SPAYTPQNLD
# T2 chain: SPAYTPQNLD
# T3: Human Recombinant GST-MED1 protein (aa1391-1490), Q15648
# T3 chain: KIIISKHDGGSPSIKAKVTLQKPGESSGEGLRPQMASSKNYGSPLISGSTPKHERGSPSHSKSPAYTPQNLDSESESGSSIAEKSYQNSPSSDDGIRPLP
# B1: CAK complex-CDK7/CyclinH/MAT1 enzyme (recombinant, BPS Bioscience) (protein)
# chain 1: ALDVKSRAKRYEKLDFLGEGQFATVYKARDKNTNQIVAIKKIKLGHRSEAKDGINRTALREIKLLQELSHPNIIGLLDAFGHKSNISLVFDFMETDLEVIIKDNSLVLTPSHIKAYMLMTLQGLEYLHQHWILHRDLKPNNLLLDENGVLKLADFGLAKSFGSPNRAYTHQVVTRWYRAPELLFGARMYGVGVDMWAVGCILAELLLRVPFLPGDSDLDQLTRIFETLGTPTEEQWPDMCSLPDYVTFKSFPGIPLHHIFSAAGDDLLDLIQGLFLFNPCARITATQALKMKYFSNRPGPTPGCQLPRPNCPVETLKEQSNPALAIKRKRTEALEQGGLPKKLIF
# chain 2: YHNSSQKRHWTFSSEEQLARLRADANRKFRCKAVANGKVLPNDPVFLEPHEEMTLCKYYEKRLLEFCSVFKPAMPRSVVGTACMYFKRFYLNNSVMEYHPRIIMLTCAFLACKVDEFNVSSPQFVGNLRESPLGQEKALEQILEYELLLIQQLNFHLIVHNPYRPFEGFLIDLKTRYPILENPEILRKTADDFLNRIALTDAYLLYTPSQIALTAILSSASRAGITMESYLSESLMLKENRTCLSQLLDIMKSMRNLVKKYEPPRSEEVAVLKQKLERCHSAELALNVITKKRKGYEDDDYVSKKSKHEEEEWTDDDLVESL
# chain 3: DDQGCPRCKTTKYRNPSLKLMVNVCGHTLCESCVDLLFVRGAGNCPECGTPLRKSNFRVQLFEDPTVDKEVEIRKKVLKIYNKREEDFPSLREYNDFLEEVEEIVFNLTNNVDLDNTKKKMEIYQKENKDVIQKNKLKLTREQEELEEALEVERQENEQRRLFIQKEEQLQQILKRKNKQAFLDELESSDLPVALLLAQHKDRSTQLEMQLEKPKPVKPVTFSTGIKMGQHISLAPIHKLEEALYEYQPLQIETYGPHVPELEMLGRLGYLNHVRAASPQDLAGGYTSSLACHRALQDAFSGLFWQPS
# B2: CDK7 (endogenous) (enzyme, human, UniProt P50613 2-346, looked up)
# chain: B1 chain 1
# notes: Detected or immunoprecipitated with anti-CDK7 (Cell Signaling 2916s); also called cyclin-dependent-kinase 7
# What was measured:
# [1] = target: T1, mutant MED1-peptide SPAYAPQNLD
# [2] = target: T2, wild type MED1-peptide SPAYTPQNLD
# [3] = target: T3, Human Recombinant GST-MED1 protein …
# [4] = target: T4, MED1 (endogenous, phosphorylated upon DHT stimulation) (Homo sapiens, UniProt Q15648 1-1581, phosphothreonine at T1457 and T1032 (DHT-induced)); assay: reciprocal co-immunoprecipitation from LNCaP and VCaP nuclear lysates with MED1 and CDK7 antibodies (FIGS. 5c, 5d)
# T4 construct: Endogenous protein immunoprecipitated with an anti-MED1 antibody (Bethyl A300-793A) from nuclear extracts; also called p-MED1; TRAP220
# T4 sequence (Q15648 whole entry): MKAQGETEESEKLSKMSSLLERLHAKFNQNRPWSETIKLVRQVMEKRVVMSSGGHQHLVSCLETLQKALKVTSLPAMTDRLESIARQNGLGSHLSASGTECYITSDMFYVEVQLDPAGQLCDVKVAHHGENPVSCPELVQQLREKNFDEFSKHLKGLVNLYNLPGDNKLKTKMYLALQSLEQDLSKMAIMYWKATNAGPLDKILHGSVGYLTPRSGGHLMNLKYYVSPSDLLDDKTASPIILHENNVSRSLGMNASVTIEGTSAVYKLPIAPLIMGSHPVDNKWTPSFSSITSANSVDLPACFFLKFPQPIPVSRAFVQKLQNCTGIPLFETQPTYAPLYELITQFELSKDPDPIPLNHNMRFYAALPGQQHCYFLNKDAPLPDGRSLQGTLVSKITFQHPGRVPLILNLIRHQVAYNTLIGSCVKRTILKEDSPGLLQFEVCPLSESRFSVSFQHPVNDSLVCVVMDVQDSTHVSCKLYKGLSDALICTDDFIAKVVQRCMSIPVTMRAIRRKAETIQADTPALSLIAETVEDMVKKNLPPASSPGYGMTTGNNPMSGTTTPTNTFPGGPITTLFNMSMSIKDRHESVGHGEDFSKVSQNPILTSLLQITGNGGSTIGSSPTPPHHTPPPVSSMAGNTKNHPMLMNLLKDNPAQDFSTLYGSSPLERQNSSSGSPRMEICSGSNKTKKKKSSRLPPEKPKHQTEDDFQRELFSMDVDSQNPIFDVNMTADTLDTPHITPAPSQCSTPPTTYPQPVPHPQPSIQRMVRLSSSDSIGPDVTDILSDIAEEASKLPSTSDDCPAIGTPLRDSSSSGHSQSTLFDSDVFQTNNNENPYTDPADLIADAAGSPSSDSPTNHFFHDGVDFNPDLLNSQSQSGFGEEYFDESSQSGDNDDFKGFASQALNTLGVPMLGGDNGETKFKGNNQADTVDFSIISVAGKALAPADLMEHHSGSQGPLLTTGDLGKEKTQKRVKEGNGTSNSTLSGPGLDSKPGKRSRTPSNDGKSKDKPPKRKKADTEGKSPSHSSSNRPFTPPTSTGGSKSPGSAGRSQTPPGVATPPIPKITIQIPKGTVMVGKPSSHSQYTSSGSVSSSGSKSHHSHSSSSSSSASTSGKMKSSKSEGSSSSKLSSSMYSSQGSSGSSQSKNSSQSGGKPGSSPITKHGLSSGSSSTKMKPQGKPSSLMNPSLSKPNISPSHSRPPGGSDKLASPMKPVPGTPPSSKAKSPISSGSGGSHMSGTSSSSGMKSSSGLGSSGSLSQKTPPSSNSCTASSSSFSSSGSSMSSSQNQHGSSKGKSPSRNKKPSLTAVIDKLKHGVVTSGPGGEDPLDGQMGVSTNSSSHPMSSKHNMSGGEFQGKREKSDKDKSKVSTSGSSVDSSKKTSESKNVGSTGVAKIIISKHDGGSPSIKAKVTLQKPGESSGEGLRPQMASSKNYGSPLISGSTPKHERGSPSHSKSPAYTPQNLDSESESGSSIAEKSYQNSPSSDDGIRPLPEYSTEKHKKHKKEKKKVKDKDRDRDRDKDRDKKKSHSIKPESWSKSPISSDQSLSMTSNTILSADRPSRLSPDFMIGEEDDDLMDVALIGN
Binder,luminescence based kinase assay (ADP-Glo) [1],luminescence based kinase assay (ADP-Glo) [2],"in vitro kinase assay, immunoblot of the reaction mixtures [3]",binding result [4]
B1,CDK7 exhibited no activity towards the T1457A mutant peptide,CDK7-mediated phosphorylation of the T1457 wildtype peptide was inhibited by THZ1 treatment in a dose-dependent manner,"we observed Threonine phosphorylation, specifically at T1457, which was completely inhibited by THZ1",–
B2,–,–,–,binds
